Like-named read-outs stand apart in the source and are kept apart here.
T1: FcγRIIB/C (CD32b/c) (FcγRIIB) (R&D Systems) (UniProt P31994 46-217)
T1 chain: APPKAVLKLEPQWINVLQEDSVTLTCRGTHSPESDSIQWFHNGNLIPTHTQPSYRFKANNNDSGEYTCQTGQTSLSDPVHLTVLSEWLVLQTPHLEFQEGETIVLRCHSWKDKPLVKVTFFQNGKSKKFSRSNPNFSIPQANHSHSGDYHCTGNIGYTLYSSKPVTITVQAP


Legend:
Experiment in all cases: SPR
[1] = target: T1, FcγRIIB/C (CD32b/c) (FcγRIIB) (R&D …)
[2] = target: Fc gamma RIIIA/CD16a, CF (FcγRIIIA(V158)) (R&D Systems)
[3] = target: T1, FcγRIIB/C (CD32b/c) (FcγRIIB) (R&D …)

Chain of Fc gamma RIIIA/CD16a, CF (FcγRIIIA(V158)) (R&D Systems) (chain, as listed by the source): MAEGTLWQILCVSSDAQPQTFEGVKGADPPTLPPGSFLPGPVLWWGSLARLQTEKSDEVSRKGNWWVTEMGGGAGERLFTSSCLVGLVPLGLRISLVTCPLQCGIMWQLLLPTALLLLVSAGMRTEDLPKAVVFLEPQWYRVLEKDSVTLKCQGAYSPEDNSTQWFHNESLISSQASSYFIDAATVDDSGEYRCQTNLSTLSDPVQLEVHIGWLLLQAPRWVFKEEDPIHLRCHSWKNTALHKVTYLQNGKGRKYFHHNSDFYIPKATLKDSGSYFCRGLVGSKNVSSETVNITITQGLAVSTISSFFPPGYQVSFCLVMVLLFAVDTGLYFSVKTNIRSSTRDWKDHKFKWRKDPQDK

| Kd [1] | Kd [2] | Kd [3] | Binder |
| --- | --- | --- | --- |
| 1.02 µM |  |  | X2-K-DF HM242-C3 (antibody) chain 1: QVQLVQSGPEVKKPGASVKVVCKASGYTFTSYYIQWVKQRPGQGLEWIGWIYPGDGTTKYNEKFKGRVTMTIDKSTRTAYMELRSLRSDDTAVYYCASYYGSYFDYWGQGTLVTVSSASTKGPSVFPLAPSSKSTSGGTAALGCLVKDYFPEPVTVSWNSGALTSGVHTFPAVLQSSGLYSLSSVVTVPSSSLGTQTYICNVNHKPSNTKVDKKVEPKSCDKTHTCPPCPAPELLDGPSVFLFPPKPKDTLMISRTPEVTCVVVDVSDEDPEVKFNWYVDGVEVHNAKTKPREEQYNSTYRVVSVLTVLHQDWLNGKEYKCAVSNKALPAPIEKTISKAKGQPREPQVYTLPPSRDELTKNQVSLTCLVKGFYPSDIAVEWESNGQPENNYKTTPPVLDSDGSFFLYSKLTVDKSRWQQGNVFSCSVMHEALHNHYTQKSLSLSPGK chain 2: not shown |
| 2.54 µM |  |  | X3-KS-DF HM242-D3 (antibody) chain 1: QVQLVQSGPEVKKPGASVKVVCKASGYTFTSYYIQWVRQVPGQGLEWMGWIYPGDGTTKYNEKFKGRVTMTIDTSTSTAYMELRSLRSDDTAVYYCASYYGSYFDYWGQGTLVTVSSASTKGPSVFPLAPSSKSTSGGTAALGCLVKDYFPEPVTVSWNSGALTSGVHTFPAVLQSSGLYSLSSVVTVPSSSLGTQTYICNVNHKPSNTKVDKKVEPKSCDKTHTCPPCPAPELLGGPDVFLFPPKPKDTLMISRTPEVTCVVVDVGDEDPEVKFNWYVDGVEVHNAKTKPREEQYNSTYRVVSVLTVLHQDWLNGKEYKCAVSNKALPAPIEKTISKAKGQPREPQVYTLPPSRDELTKNQVSLTCLVKGFYPSDIAVEWESNGQPENNYKTTPPVLDSDGSFFLYSKLTVDKSRWQQGNVFSCSVMHEALHNHYTQKSLSLSPGK chain 2: not shown |
| 0.736 µM | 1.25 µM |  | X3-KL HM268-K8 (antibody) chain 1: QVQLVQSGPEVKKPGASVKVVCKTSGYTFTSYYIQWLKQRPGQGLEWIGWIYFGDASTKYNEKFKGRVTMTADKSTSTAYMELRSLRSDDTAVYYCASYYGSYFDYWGQGTTVTVSSASTKGPSVFPLAPSSKSTSGGTAALGCLVKDYFPEPVTVSWNSGALTSGVHTFPAVLQSSGLYSLSSVVTVPSSSLGTQTYICNVNHKPSNTKVDKKVEPKSCDKTHTCPPCPAPELLGGPDVFLFPPKPKDTLMISRTPEVTCVVVDVSDEDPEVKFNWYVDGVEVHNAKTKPREEQYNSTYRVVSVLTVLHQDWLNGKEYKCAVSNKAYPAPIEKTISKAKGQPREPQVYTLPPSRDELTKNQVSLTCLVKGFYPSDIAVEWESNGQPENNYKTTPPVLDSDGSFFLYSKLTVDKSRWQQGNVFSCSVMHEALHNHYTQKSLSLSPGK chain 2: DIQMTQSPSSLSASVGDRVTITCRASQDISNYLNWYQQKPDGTVKLLIYSTSRLHSGVPSRFSGSGSGTDYTLTISSLQPEDFATYYCQQGSTLPFTFGQGTKLEIKRTVAAPSVFIFPPSDEQLKSGTASVVCLLNNFYPREAKVQWKVDNALQSGNSQESVTEQDSKDSTYSLSSTLTLSKADYEKHKVYACEVTHQGLSSPVTKSFNRGEC |
| 1.17 µM |  |  | X3-KS-DF HM242-C3 (antibody) chain 1: QVQLVQSGPEVKKPGASVKVVCKASGYTFTSYYIQWVKQRPGQGLEWIGWIYPGDGTTKYNEKFKGRVTMTIDKSTRTAYMELRSLRSDDTAVYYCASYYGSYFDYWGQGTLVTVSSASTKGPSVFPLAPSSKSTSGGTAALGCLVKDYFPEPVTVSWNSGALTSGVHTFPAVLQSSGLYSLSSVVTVPSSSLGTQTYICNVNHKPSNTKVDKKVEPKSCDKTHTCPPCPAPELLGGPDVFLFPPKPKDTLMISRTPEVTCVVVDVGDEDPEVKFNWYVDGVEVHNAKTKPREEQYNSTYRVVSVLTVLHQDWLNGKEYKCAVSNKALPAPIEKTISKAKGQPREPQVYTLPPSRDELTKNQVSLTCLVKGFYPSDIAVEWESNGQPENNYKTTPPVLDSDGSFFLYSKLTVDKSRWQQGNVFSCSVMHEALHNHYTQKSLSLSPGK chain 2: not shown |
|  | 0.236 µM | 1.05 µM | X4-K HM268-K8 (antibody) chain 1: QVQLVQSGPEVKKPGASVKVVCKTSGYTFTSYYIQWLKQRPGQGLEWIGWIYFGDASTKYNEKFKGRVTMTADKSTSTAYMELRSLRSDDTAVYYCASYYGSYFDYWGQGTTVTVSSASTKGPSVFPLAPSSKSTSGGTAALGCLVKDYFPEPVTVSWNSGALTSGVHTFPAVLQSSGLYSLSSVVTVPSSSLGTQTYICNVNHKPSNTKVDKKVEPKSCDKTHTCPPCPAPELLGGPDVFLFPPKPKDTLMISRTPEVTCVVVDVSDEDPEVKFNWYVDGVEVHNAKTKPREEQYNSTYRVVSVLTVLHQDWLNGKEYKCAVSNKAYPAPEEKTISKAKGQPREPQVYTLPPSRDELTKNQVSLTCLVKGFYPSDIAVEWESNGQPENNYKTTPPVLDSDGSFFLYSKLTVDKSRWQQGNVFSCSVMHEALHNHYTQKSLSLSPGK chain 2: DIQMTQSPSSLSASVGDRVTITCRASQDISNYLNWYQQKPDGTVKLLIYSTSRLHSGVPSRFSGSGSGTDYTLTISSLQPEDFATYYCQQGSTLPFTFGQGTKLEIKRTVAAPSVFIFPPSDEQLKSGTASVVCLLNNFYPREAKVQWKVDNALQSGNSQESVTEQDSKDSTYSLSSTLTLSKADYEKHKVYACEVTHQGLSSPVTKSFNRGEC |
|  | 7.56 µM | 1.65 µM | X2-K HM268-K8 (antibody) chain 1: QVQLVQSGPEVKKPGASVKVVCKTSGYTFTSYYIQWLKQRPGQGLEWIGWIYFGDASTKYNEKFKGRVTMTADKSTSTAYMELRSLRSDDTAVYYCASYYGSYFDYWGQGTTVTVSSASTKGPSVFPLAPSSKSTSGGTAALGCLVKDYFPEPVTVSWNSGALTSGVHTFPAVLQSSGLYSLSSVVTVPSSSLGTQTYICNVNHKPSNTKVDKKVEPKSCDKTHTCPPCPAPELLDGPSVFLFPPKPKDTLMISRTPEVTCVVVDVSDEDPEVKFNWYVDGVEVHNAKTKPREEQYNSTYRVVSVLTVLHQDWLNGKEYKCAVSNKALPAPIEKTISKAKGQPREPQVYTLPPSRDELTKNQVSLTCLVKGFYPSDIAVEWESNGQPENNYKTTPPVLDSDGSFFLYSKLTVDKSRWQQGNVFSCSVMHEALHNHYTQKSLSLSPGK chain 2: DIQMTQSPSSLSASVGDRVTITCRASQDISNYLNWYQQKPDGTVKLLIYSTSRLHSGVPSRFSGSGSGTDYTLTISSLQPEDFATYYCQQGSTLPFTFGQGTKLEIKRTVAAPSVFIFPPSDEQLKSGTASVVCLLNNFYPREAKVQWKVDNALQSGNSQESVTEQDSKDSTYSLSSTLTLSKADYEKHKVYACEVTHQGLSSPVTKSFNRGEC |
| 2.55 µM | 0.881 µM |  | X4-KS HM268-K8 (antibody) chain 1: QVQLVQSGPEVKKPGASVKVVCKTSGYTFTSYYIQWLKQRPGQGLEWIGWIYFGDASTKYNEKFKGRVTMTADKSTSTAYMELRSLRSDDTAVYYCASYYGSYFDYWGQGTTVTVSSASTKGPSVFPLAPSSKSTSGGTAALGCLVKDYFPEPVTVSWNSGALTSGVHTFPAVLQSSGLYSLSSVVTVPSSSLGTQTYICNVNHKPSNTKVDKKVEPKSCDKTHTCPPCPAPELLGGPDVFLFPPKPKDTLMISRTPEVTCVVVDVGDEDPEVKFNWYVDGVEVHNAKTKPREEQYNSTYRVVSVLTVLHQDWLNGKEYKCAVSNKAYPAPEEKTISKAKGQPREPQVYTLPPSRDELTKNQVSLTCLVKGFYPSDIAVEWESNGQPENNYKTTPPVLDSDGSFFLYSKLTVDKSRWQQGNVFSCSVMHEALHNHYTQKSLSLSPGK chain 2: DIQMTQSPSSLSASVGDRVTITCRASQDISNYLNWYQQKPDGTVKLLIYSTSRLHSGVPSRFSGSGSGTDYTLTISSLQPEDFATYYCQQGSTLPFTFGQGTKLEIKRTVAAPSVFIFPPSDEQLKSGTASVVCLLNNFYPREAKVQWKVDNALQSGNSQESVTEQDSKDSTYSLSSTLTLSKADYEKHKVYACEVTHQGLSSPVTKSFNRGEC |
| 1.22 µM |  |  | X3-KS-DF HM297-H5 (antibody) chain 1: QVQLVQSGPEVKKPGASVKIPCKASGYTFTDYNVDWVRQVPGQGLEWMGDIDPNNGGTIYNQKFKDRVTMTVDKSTRTAYMELRSLRSDDTAVYYCARWRGAMDYWGQGTLVTVSSASTKGPSVFPLAPSSKSTSGGTAALGCLVKDYFPEPVTVSWNSGALTSGVHTFPAVLQSSGLYSLSSVVTVPSSSLGTQTYICNVNHKPSNTKVDKKVEPKSCDKTHTCPPCPAPELLGGPDVFLFPPKPKDTLMISRTPEVTCVVVDVGDEDPEVKFNWYVDGVEVHNAKTKPREEQYNSTYRVVSVLTVLHQDWLNGKEYKCAVSNKALPAPIEKTISKAKGQPREPQVYTLPPSRDELTKNQVSLTCLVKGFYPSDIAVEWESNGQPENNYKTTPPVLDSDGSFFLYSKLTVDKSRWQQGNVFSCSVMHEALHNHYTQKSLSLSPGK chain 2: DIQMTQSPSSLSASVGDRVTITCRASQDIDNYLKWYQQKPDGTVKLLIYDTSRLHSGVPSRFSGSGSGTDYTLTISSLKQEDFATYYCQQGYTLPWTFGQGTKLEIKRTVAAPSVFIFPPSDEQLKSGTASVVCLLNNFYPREAKVQWKVDNALQSGNSQESVTEQDSKDSTYSLSSTLTLSKADYEKHKVYACEVTHQGLSSPVTKSFNRGEC |
| 2.2 µM |  |  | X3-KS-DF HM268-K8 (antibody) chain 1: QVQLVQSGPEVKKPGASVKVVCKTSGYTFTSYYIQWLKQRPGQGLEWIGWIYFGDASTKYNEKFKGRVTMTADKSTSTAYMELRSLRSDDTAVYYCASYYGSYFDYWGQGTTVTVSSASTKGPSVFPLAPSSKSTSGGTAALGCLVKDYFPEPVTVSWNSGALTSGVHTFPAVLQSSGLYSLSSVVTVPSSSLGTQTYICNVNHKPSNTKVDKKVEPKSCDKTHTCPPCPAPELLGGPDVFLFPPKPKDTLMISRTPEVTCVVVDVGDEDPEVKFNWYVDGVEVHNAKTKPREEQYNSTYRVVSVLTVLHQDWLNGKEYKCAVSNKALPAPIEKTISKAKGQPREPQVYTLPPSRDELTKNQVSLTCLVKGFYPSDIAVEWESNGQPENNYKTTPPVLDSDGSFFLYSKLTVDKSRWQQGNVFSCSVMHEALHNHYTQKSLSLSPGK chain 2: DIQMTQSPSSLSASVGDRVTITCRASQDISNYLNWYQQKPDGTVKLLIYSTSRLHSGVPSRFSGSGSGTDYTLTISSLQPEDFATYYCQQGSTLPFTFGQGTKLEIKRTVAAPSVFIFPPSDEQLKSGTASVVCLLNNFYPREAKVQWKVDNALQSGNSQESVTEQDSKDSTYSLSSTLTLSKADYEKHKVYACEVTHQGLSSPVTKSFNRGEC |
